1 molecule from patent US20110038917A1, “THERAPEUTIC COMPOSITIONS AND METHODS FOR TREATING GRAM-NEGATIVE BACTERIAL INFECTIONS” (RQ Bioscience, Inc., priority 2007, published 2011) can be followed below.

For this data set the following is noted: human, in vivo. As to the method:
The patient dissolved varying amounts of grape seed powder containing 20% (w/w) of oligomeric proanthocyanidin (OPC) in 37% alcohol/water to produce solutions having OPC concentrations of 1,000 mg/ml, 2,000 mg/ml and 4,000 mg/ml. Each of the solutions were filtered the resulting filtrate then diluted 1:1 with water to produce solutions having final concentrations of 500 mg OPC/l, 1,000 mg OPC/l and 2,000 mg OPC/l. They loaded 3 ml of the 500 mg OPC/l solution into an inhaler and self-administered the solution to their lungs two to three times/day for a few days. […] They performed the same experiment with each of the higher concentration OPC solutions. […] The patient then prepared a solution of bovine apolactoferrin. The lactoferrin was manufactured by Life Extension as a solid in a capsule. The patient broke open capsules and dissolved the lactoferrin therein in 18.5% alcohol/water to final concentrations ranging from 1 g lactoferrin/l to 4.5 g lactoferrin/l. […] The patient reported a relief from all signs of their infection, including coughing, for 4 to 5 hours following administration of the lactoferrin. After that time, their condition began to return to the pre-treatment state. […] It is theorized that this may have been due to a build-up in the patient's lungs of contaminants present in the OPC/lactoferrin preparation that could not be removed by filtration prior to administration. […]

B1: lactoferrin: bovine apolactoferrin manufactured by Life Extension as a solid in a capsule, dissolved in 18.5% alcohol/water (protein, UniProt P24627 20-708, looked up)
Lactotransferrin: APRKNVRWCTISQPEWFKCRRWQWRMKKLGAPSITCVRRAFALECIRAIAEKKADAVTLDGGMVFEAGRDPYKLRPVAAEIYGTKESPQTHYYAVAVVKKGSNFQLDQLQGRKSCHTGLGRSAGWIIPMGILRPYLSWTESLEPLQGAVAKFFSASCVPCIDRQAYPNLCQLCKGEGENQCACSSREPYFGYSGAFKCLQDGAGDVAFVKETTVFENLPEKADRDQYELLCLNNSRAPVDAFKECHLAQVPSHAVVARSVDGKEDLIWKLLSKAQEKFGKNKSRSFQLFGSPPGQRDLLFKDSALGFLRIPSKVDSALYLGSRYLTTLKNLRETAEEVKARYTRVVWCAVGPEEQKKCQQWSQQSGQNVTCATASTTDDCIVLVLKGEADALNLDGGYIYTAGKCGLVPVLAENRKSSKHSSLDCVLRPTEGYLAVAVVKKANEGLTWNSLKDKKSCHTAVDRTAGWNIPMGLIVNQTGSCAFDEFFSQSCAPGADPKSRLCALCAGDDQGLDKCVPNSKEKYYGYTGAFRCLAEDVGDVAFVKNDTVWENTNGESTADWAKNLNREDFRLLCLDGTRKPVTEAQSCHLAVAPNHAVVSRSDRAAHVKQVLLHQQALFGKNGKNCPDKFCLFKSETKNLLFNDNTECLAKLGGRPTYEEYLGTEYVTAIANLKKCSTSPLLEACAFLTR
modifications: apo form
notes: bovine apolactoferrin manufactured by Life Extension as a solid in a capsule, dissolved in 18.5% alcohol/water
With B1, the “side effects on inhalation” value is recorded as “no immediate deleterious side effects”.
